One molecule from US20160002344A1 (ONCOMED PHARMACEUTICALS, published 2016) can be followed below.

Assay [1] concerns the target T1, recombinant human RSPO1-Fc fusion protein (human, UniProt Q2MKA7 21-263).
T1 construct: not shown: human Fc region
The experiment in a line: SPR (Biacore 2000), RSPO1-Fc immobilized on CM5 chip, antibody injected 100 nM to 0.78 nM. How it is done: (§1) The KD of h89M5-H2L2 was determined using a Biacore 2000 system from Biacore LifeSciences (GE Healthcare). Recombinant human RSPO1-Fc or mouse RSPO1-Fc proteins were immobilized on CM5 chips using standard amine-based chemistry (NHS/EDC). The antibodies were serially diluted 2-fold from 100 nM to 0.78 nM in HBS-P (0.01M HEPES pH7.4, 0.15M NaCl, 0.005% v/v Surfactant P20) and were injected over the chip surface. Kinetic data were collected over time and were fit using the simultaneous global fit equation to yield affinity constants (KD values) for each antibody.
Background: SPR reads the build-up and loss of mass on a sensor chip optically.

Assay [2] has as its target T2, recombinant mouse RSPO1-Fc protein (mouse, UniProt Q9Z132 21-265, limits assumed).
T2 construct: Construct not described; not shown: Fc; not described
The description is as above. How it is done: as §1

The Kd is the constant that tells how readily two partners part at equilibrium.

Bounds are passed on as bounds.

T1 sequence (Q2MKA7 21-263): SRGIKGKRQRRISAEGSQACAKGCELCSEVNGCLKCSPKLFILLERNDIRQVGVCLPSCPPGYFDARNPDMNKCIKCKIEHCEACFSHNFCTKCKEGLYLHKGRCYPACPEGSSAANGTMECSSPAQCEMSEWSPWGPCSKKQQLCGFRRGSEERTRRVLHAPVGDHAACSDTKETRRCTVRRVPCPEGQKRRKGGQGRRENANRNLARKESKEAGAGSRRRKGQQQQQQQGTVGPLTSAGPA
T2 sequence (Q9Z132 21-265 limits assumed): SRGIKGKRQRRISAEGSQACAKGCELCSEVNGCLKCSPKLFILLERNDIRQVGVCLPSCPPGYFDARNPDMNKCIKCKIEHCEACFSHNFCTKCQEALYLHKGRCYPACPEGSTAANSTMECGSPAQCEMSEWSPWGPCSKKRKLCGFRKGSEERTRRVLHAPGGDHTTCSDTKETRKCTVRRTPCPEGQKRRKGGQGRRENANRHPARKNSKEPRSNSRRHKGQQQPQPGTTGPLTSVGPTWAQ

B1: humanized anti-RSPO1 antibody h89M5-H2L2 (antibody, human IgG2, kappa, V domains shown)
VH: QVQLVQSGAEVKKPGASVKVSCKTSGYTFTGYTMHWVRQAPGQRLEWMGGINPNNGGTTYNQNFKGRVTITRDTSASTAYMELSSLRSEDTAVYYCARKEFSDGYYFFAYWGQGTLVTVSS
VL: DIQMTQSPSSLSASVGDRVTITCKASQDVIFAVAWYQQKPGKAPKLLIYWASTRHTGVPSRFSGSGSGTDYTLTISSLQPEDFATYYCQQHYSTPWTFGGGTKVEIKR
notes: also called humanized 89M5; 89M5-H2 with 89M5-L2
On to B1, for which the Kd in assay [1] and in assay [2] was less than 0.1 nM each time.
